Data: patent publication US20220396616A1 (SANYOU BIOPHARMACEUTICALS, published 2022)

B1: A18-1-42 (VHH)
VHH: EVQVVESGGGLVQPGGSLRLSCAASGSILHIPVMSWYRQAPGKQRELVAGISTGGTTNYGDSVKGRFTISRDNAKNTVYLQMNSLKPEDTAAYYCNVLVVSGIGSHLEVWG
notes: also called candidate nanobody A18-1-42
B2: A18-1-44 (VHH)
VHH: EVQLVESGGGLVQPGGSLRLSCAASGSIFNLPVMSWYRQAPGKQRELVAGISTGGTTNYGDSVKGRFTISRDNAKNTVYLQMNSLKPEDTAVYYCNVLVISGIGSHLEVWG
B3: A-2-3 (VHH)
VHH: EVQLVESGGGLVQPGGSLRLSCAASGSIFNLPVMSWYRQAPGKQRELVAGISTGGTTNYGDSVKGRFTISRDNAKNTVYLQMNSLKPEDTAVYYCNVLVVSGIGSHLEVWG
B4: A18-1-62 (VHH)
VHH: QVQLVESGGGLVQPGGSLRLSCAASGTIFNIPVMGWYRQAPGKQRELVAGISTGGTTNYGDSVKGRFTISRDNAKNTVYLQMNSLKPEDTAVYYCNVLVISGIGSHLEVWG
B5: A18-1-65 (VHH)
VHH: EVQLQESGGGLVQPGGSLRLSCAASGTIFNLPVMSWYRQAPGKQRELVAGISTGGTTNYGDSVKGRFTISRDNARNTVYLQMNSLKPEDTAVYYCNVLVVSGIGSHLEVWG
B6: A18-1-45 (VHH)
VHH: EVQLQESGGGLVQPGGSLRLSCAASGIIFNIPVMSWYRQAPGKQRELVAGISTGGTTNYGDSVKGRFTISRDNAKNTVYLQMNSLKPEDTAVYYCNVLVVSGIGSHLEVWG
B7: humanized antibody NA3S-H1 (Fc fusion)
chain: QVQLVESGGGLVQPGGSLRLSCAASGSIFNIPVMGWYRQAPGKQRELVAGISTGGTTNYGDSVKGRFTISRDNAKNTVYLQMNSLKPEDTAVYYCNVLVVSGIGSTLEVWGQGTLVTVSS
notes: Humanized form of NA3-S; also called candidate antibody NA3S-H1; humanized molecule NA3S-H1; not shown: a human IgG Fc is implied (detected with anti-human IgG Fc)
B8: A18-1-63 (VHH)
VHH: QVQLQESGGGLVQPGGSLRLSCAASGSIFNIPVMGWYRQAPGKQRELVAGISTGGTTNYGDSVKGRFTISRDNAKNTVYLQMNSLKPEDTAVYYCNVLVVSGIGSTLEVWG
notes: also called candidate nanobody A18-1-63
B9: A293-34 (VHH)
VHH: QVQLQESGGGLVQPGGSLRLSCAASGTFFNIPVMGWYRQAPGKQRELVAGISTGGTTNYGDSVKGRFTISRDNAKNTVYLQMNSLKPEDTAVYYCNVLVISGIGSHLEVWG
notes: also called candidate nanobody A293-34
B10: A293-55 (VHH)
VHH: QVQLVESGGGSVQPGGSLRLSCAASGSIFHIVVMGWYRQAPGKQRELVAGMSTGGTTNYGDSVKGRFTISRDNAKNTVYLQMNSLKPEDTAVYYCNVLVISGIGSHLEVWG
B11: A18-1-6 (VHH)
VHH: EVQVQESGGGLVQPGGSLRLSCAASGSIFNIPVMSWYRQAPGKQRELVAGISTGGTTNYGDSVKGRFTISRDNAKTTVYLQMNSLKPEDTAVYYCNVLVISGIGSHLEVWG
B12: IMAB362 antibody (antibody, V domains shown)
VH: QVQLQQPGAELVRPGASVKLSCKASGYTFTSYWINWVKQRPGQGLEWIGNIYPSDSYTNYNQKFKDKATLTVDKSSSTAYMQLSSPTSEDSAVYYCTRSWRGNSFDYWGQGTTLTVSS
VL: DIVMTQSPSSLTVTAGEKVTMSCKSSQSLLNSGNQKNYLTWYQQKPGQPPKLLIYWASTRESGVPDRFTGSGSGTDFTLTISSVQAEDLAVYYCQNDYSYPFTFGSGTKLEIKR
B13: A18-1-48 (VHH)
VHH: EVQLVESGGGLVQPGGSLRLSCAASGNIFRIDTMGWYRQAPGKQREFVAGISRGGSTNYAHSVKERFTISRDNAKNTMYLQMNSLKSEDTAGYYCNAQAWDPGTIRYLEVWGQGTLVTVSA
B14: A18-1-50 (VHH)
VHH: EVQVQESGGGLVQPGGSLRLSCAASGNIFRIDTMGWYRQAPGKQRELVAGISRGGTTTYAHSVKERFTISRDNAKNTMYLQMNSLKSEDTAGYYCNAQAWDPGTFRYLEVWGQGTLVTVSA
B15: A18-1-75 (VHH)
VHH: EVQLVESGGGLVQPGGSLRLSCAASGNIFRIDTMVWYRQAPGKQRELVAGISRGGTTNYAHSVKGRFTISRDNAKNTMYLQMNSLKSEDTATYYCNAQAWDVGTIRYLEVWGQGTLVTVSA
B16: A18-1-78 (VHH)
VHH: EVQLQESGGGLVQPGGSLRLSCAASGNIFRIDTMGWYRQAPGKQREFVAGISRGGSTNYAHSVKERFTISRDNAKNTMYLQMNSLKSEDTAGYYCNAQAWDPGTIRYLEVWGQGTLVTVSA
B17: A293-82 (VHH)
VHH: EVQVVESGGGLVQPGGSLRLSCAASGNIFRIDTMVWYRQAPGKQRELVAGISRGGTTNYAHSVKGRFTISRDNAKNTMYLQMNSLKSEDTATYYCNAQAWDVGTIRYLEVWGQGTLVTVSA
B18: A18-1-70 (VHH)
VHH: QVQLVESGGGLVQPGGSLRLSCAASGNIFRIDTMGWYRQAPGKQRELVAGISRGGTTTYAHSVKERFTISRDNAKNTMYLQMNSLKSEDTAGYYCNAQAWDPGTFRYLEVWGQGTLVTVSA
B19: A-2-4 (VHH)
VHH: EVQVQESGGGLVQAGTSLRLSCAASGNIFRIDTMGWYRQAPGKQRELVAGISRGGTTTYAHSVKERFTISRDNAKNTMYLQMNSLKSEDTAGYYCNAQAWDPGTFRYLEVWGQGTLVTVSA
notes: also called candidate nanobody A-2-4
B20: A18-1-64 (VHH)
VHH: QVQLVESGGGLVQPGGSLRLSCAASGNIFRIDTMGWYRQAPGKQREFVAGISRGGSTNYAHSVKERFTISRDNAKNTMYLQMNSLKSEDTAGYYCNAQAWDPGTIRYLEVWGQGTLVTVSS

How the values were obtained:
[1] = target: T1, human CLDN18.2 (human); assay: flow cytometry, phage supernatant; hCLDN18.2 cells against hCLDN18.1 cells
T1 construct: also called hCLDN18.2; huCLDN18.2
Source text: (§1) firstly, 1×10⁵ of human CLDN18.2-HEK293T and human CLDN18.1-HEK293 cells were taken, respectively and centrifuged at a low speed of 500 g, and the supernatant was removed.

[2] = target: T2, human CLDN18.1 (human, UniProt P56856 1-261); assay: flow cytometry, phage supernatant on hCLDN18.1-expressing HEK293 cells
T2 construct: Full length, overexpressed on HEK293 cells; also called hCLDN18.1; human CLDN18.1-HEK293
Source text: as §1

[3] = target: T1, human CLDN18.2; assay: flow cytometry, phage supernatant on hCLDN18.2-expressing HEK293T cells
Source text: as §1

[4] = target: T2, human CLDN18.1; assay: flow cytometry, phage supernatant on human CLDN18.1-HEK293 cells
Source text: as §1

[5] = target: T1, human CLDN18.2; assay: cell-based or functional assay
[6] = target: T2, human CLDN18.1; assay: flow cytometry on CLDN18.1-HEK293 cells, different concentrations
Procedure: Therefore, in this example, different concentrations of the antibody (including the high concentration of 100 μg/mL) were used to incubate with CLDN18.1-HEK293 in vitro. […] The antibody at different concentrations and target cells CLDN18.1-HEK293 were incubated at 4° C. for 1 h and then rinsed three times with the FACS buffer mentioned above. 0.5 μg (0.5 mg/ml) of PE-labelled goat anti-human IgG Fc antibody (Abcam, ab98596) was added and incubated at 4° C. for another 1 h. […] The binding strength and the positive rate of cell binding were recorded.

T2 sequence (P56856 whole entry): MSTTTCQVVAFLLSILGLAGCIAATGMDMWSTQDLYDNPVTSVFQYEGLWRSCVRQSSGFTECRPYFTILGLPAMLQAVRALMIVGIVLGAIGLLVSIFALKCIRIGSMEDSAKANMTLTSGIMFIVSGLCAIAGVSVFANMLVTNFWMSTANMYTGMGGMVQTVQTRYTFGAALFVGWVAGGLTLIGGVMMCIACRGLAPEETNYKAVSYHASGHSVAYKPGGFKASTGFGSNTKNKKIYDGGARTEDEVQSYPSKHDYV

| Binder | ratio of mean fluorescence intensities on hCLDN18.2 and hCLDN18.1 cells [1] | mean fluorescence intensity [2] [MFI] | mean fluorescence intensity [3] [MFI] | binding result [4] | also measured |
| --- | --- | --- | --- | --- | --- |
| B1 | 392 | 1010 | 396000 | no binding |  |
| B2 | 104 | 3740 | 390000 | no binding |  |
| B3 | 175 | 3260 | 570000 | no binding |  |
| B4 | 126 | 2940 | 372000 | no binding |  |
| B5 | 73 | 5890 | 428000 | no binding |  |
| B6 | 78 | 4750 | 369000 | no binding |  |
| B7 |  |  |  |  | CDC cell killing on CLDN18.2-KATOIII cells, EC50 [5]: 10.4 nM; binding result [6]: no binding (tested: 100 µg/mL) |
| B8 | 2200 | 175 | 385000 | no binding |  |
| B9 | 187 | 2430 | 454000 | no binding |  |
| B10 | 117 | 3340 | 392000 | no binding |  |
| B11 | 201 | 1970 | 396000 | no binding |  |
| B12 |  |  |  |  | CDC cell killing on CLDN18.2-KATOIII cells, EC50 (run with NA3S-H1) [5]: 149 nM; CDC cell killing on human CLDN18.2-HEK293T cells, EC50 [5]: 0.936 nM; CDC cell killing on human CLDN18.2-KATOIII tumor cells, EC50 (run with NA1-S, FIG. 6b) [5]: 50.9 nM; CDC cell killing on human CLDN18.2-KATOIII tumor cells, EC50 (run with NA3-S, FIG. 7d) [5]: 85.8 nM; Fab-ZAP cell killing (internalization) on CLDN18.2-HEK293T cells, IC50 (run with NA1-S) [5]: 0.24 nM; Fab-ZAP cell killing (internalization) on CLDN18.2-HEK293T cells, IC50 (run with NA3-S) [5]: 0.32 nM |
| B13 | 103 | 3450 | 357000 |  |  |
| B14 | 67 | 6040 | 403000 |  |  |
| B15 | 99 | 3890 | 387000 |  |  |
| B16 | 105 | 3680 | 385000 |  |  |
| B17 | 102 | 4320 | 442000 |  |  |
| B18 | 65 | 6230 | 402000 |  |  |
| B19 | 137 | 4330 | 592000 |  |  |
| B20 | 116 | 3500 | 406000 |  |  |
